From patent publication US20220204624A1 (Xencor, published 2022)
Substitutions are numbered along the chain they refer to.

What was measured:
[1] = target: T1, His-tagged human PD-1 (human, UniProt Q15116 25-167, limits assumed); test: Octet, antibody on AHC biosensors, His-tagged PD-1 as analyte
T1 construct: also called PD-1-His; huPD-1-His; not shown: histidine tag

[2] = target: T1, His-tagged human PD-1; test: Octet, His-tagged PD-1 as analyte
[3] = target: T1, His-tagged human PD-1; test: Biacore (SPR), mAb captured on Protein A chip, histidine-tagged human PD-1 as analyte
[4] = target: T1, His-tagged human PD-1; test: Octet, antibody on AHC biosensors, His-tagged human PD-1 as analyte
[5] = target: cynomolgus CTLA-4 (cynomolgus, UniProt G7PL88 36-161); test: Octet (BLI), global fit, 1:1 binding model
Chain of cynomolgus CTLA-4 (G7PL88 entry or part of it limits assumed, form in doubt): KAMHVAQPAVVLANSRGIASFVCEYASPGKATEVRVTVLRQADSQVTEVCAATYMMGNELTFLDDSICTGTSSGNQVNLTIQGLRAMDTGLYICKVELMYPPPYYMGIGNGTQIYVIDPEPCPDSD

[6] = target: human CTLA-4 (human, UniProt P16410 36-161, limits assumed); test: Octet (BLI), global fit, 1:1 binding model
Chain of human CTLA-4 (P16410 36-161 limits assumed): as the sequence (G7PL88 entry or part of it limits assumed, form in doubt) above, with N14S, M106L counted along it

[7] = target: human PD-1 (human, UniProt Q15116 25-167, limits assumed); test: Octet (BLI), global fit, 1:1 binding model
Chain of human PD-1 (Q15116 25-167 limits assumed): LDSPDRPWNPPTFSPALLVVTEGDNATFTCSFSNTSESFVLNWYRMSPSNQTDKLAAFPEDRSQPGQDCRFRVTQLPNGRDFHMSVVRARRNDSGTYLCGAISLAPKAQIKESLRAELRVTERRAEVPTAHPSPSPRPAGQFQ

[8] = target: T2, cynomolgus PD-1 (cynomolgus, UniProt B0LAJ3 25-170); test: Octet (BLI), global fit, 1:1 binding model
T2 construct: also called cyno PD-1; not shown: carrier of the soluble construct (His tag or Fc)
T2 sequence (B0LAJ3 entry or part of it limits assumed, form in doubt): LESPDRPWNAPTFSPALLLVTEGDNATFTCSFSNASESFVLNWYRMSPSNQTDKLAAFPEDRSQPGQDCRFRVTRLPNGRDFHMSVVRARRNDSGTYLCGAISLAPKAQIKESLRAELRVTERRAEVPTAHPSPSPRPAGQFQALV

T1 sequence (Q15116 25-167 limits assumed): as the sequence (Q15116 25-167 limits assumed) above

B1: XENP22553 (antibody, V domains shown)
VH: QIQLVQSGSELKKPGASVKVSCKASGYTFTHYGMNWVRQAPGQGLEWMGWINTYTGEPTYADGFTGRFVFSLDTSVSTAYLQISSLKAEDTAVYFCARDYYGSSPYWGQGTLVTVSS
VL: DVLMTQSPDSLAVSLGERATINCKSSQSIVHSNGNTYLEWYQQKPGQSPKLLIYKVSNRFSGVPDRFSGSGSGTDFTLTISSLQAEDVAVYYCFQGSHVPNTFGGGTKVEIK
- Kd [1]: 15 to 19 nM
- Kd [2]: ~18 nM
- Kd [3]: 8.6 nM

B2: XENP26928 (antibody, V domains shown)
VH: B1 VH
VL: B1 VL with N33E
- Kd [4]: 333 nM

B3: XmAb20717 (bispecific antibody)
chain 1: not shown
chain 2: EIVLTQSPATLSASPGERVTLTCRASQSVGNDVAWYQQKPGQAPRLLINYASHRYTGVPDRFTGSGYGTEFTLTISSVQSEDFGVYYCQQDFSSPRTFGGGTKVEIKGKPGSGKPGSGKPGSGKPGSEVQLVESGGGLVKPGGSLRLSCVASGFTFSNYWMNWVRQAPGKGLEWVAEIRLYSNNYATHYAESVKGRFTISRDDSKSTLYLQMNNLKTEDTGVYYCTRYYGNYGGYFDVWGRGTLVTVSSEPKSSDKTHTCPPCPAPPVAGPSVFLFPPKPKDTLMISRTPEVTCVVVDVKHEDPEVKFNWYVDGVEVHNAKTKPREEQYNSTYRVVSVLTVLHQDWLNGKEYKCKVSNKALPAPIEKTISKAKGQPREPQVYTLPPSREQMTKNQVKLTCLVKGFYPSDIAVEWESNGQPENNYKTTPPVLDSDGSFFLYSKLTVDKSRWQQGNVFSCSVLHEALHSHYTQKSLSLSPGK
chain 3: not shown
- Kd [5]: ~23 nM
- Kd [6]: ~4.1 nM
- Kd [7]: 1.4 nM
- Kd [8]: 5.5 nM
